Laboratory results from patent US20130115681.
Positions count from the first letter of the chain named.

Tests used:
Assay in all cases: cleavage_in_vitro
[1] = system: T1, BspQI-HF K279P/R388F (Bacillus sphaericus); conditions: NEB4, 50 C
T1 sequence: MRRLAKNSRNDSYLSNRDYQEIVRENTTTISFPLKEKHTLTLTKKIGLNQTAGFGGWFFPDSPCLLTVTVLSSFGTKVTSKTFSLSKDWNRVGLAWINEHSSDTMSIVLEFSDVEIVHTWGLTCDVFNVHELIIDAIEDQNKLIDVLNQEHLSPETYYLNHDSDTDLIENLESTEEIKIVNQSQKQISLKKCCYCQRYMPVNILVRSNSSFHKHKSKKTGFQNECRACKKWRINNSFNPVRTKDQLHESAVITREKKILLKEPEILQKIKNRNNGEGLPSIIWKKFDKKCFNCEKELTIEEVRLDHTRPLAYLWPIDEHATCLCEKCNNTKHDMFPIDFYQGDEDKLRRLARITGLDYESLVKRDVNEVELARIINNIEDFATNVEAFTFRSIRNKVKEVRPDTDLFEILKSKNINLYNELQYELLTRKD

[2] = biological target: T2, SalI (Streptomyces albus G) (UniProt Q53608); conditions: NEB4, 37 C
T2 sequence: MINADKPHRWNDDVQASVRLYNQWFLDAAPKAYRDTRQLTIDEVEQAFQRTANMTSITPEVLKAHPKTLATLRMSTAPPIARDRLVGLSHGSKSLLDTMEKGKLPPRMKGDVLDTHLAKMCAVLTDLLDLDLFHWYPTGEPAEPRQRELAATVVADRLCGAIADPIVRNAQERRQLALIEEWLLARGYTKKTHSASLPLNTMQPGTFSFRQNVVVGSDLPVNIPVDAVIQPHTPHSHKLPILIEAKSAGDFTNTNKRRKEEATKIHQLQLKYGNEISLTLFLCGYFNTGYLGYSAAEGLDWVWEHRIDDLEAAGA

[3] = biological target: T3, SalI-HF R107A (Streptomyces albus G) (UniProt Q53608); conditions: NEB4, 37 C
T3 sequence: T2 sequence with R107A

BstXI = conditions: NEB4, 55 C
[4] = system: T4, SbfI-HF K251A (Streptomyces species Bf-61?); conditions: NEB4, 37 C
T4 sequence: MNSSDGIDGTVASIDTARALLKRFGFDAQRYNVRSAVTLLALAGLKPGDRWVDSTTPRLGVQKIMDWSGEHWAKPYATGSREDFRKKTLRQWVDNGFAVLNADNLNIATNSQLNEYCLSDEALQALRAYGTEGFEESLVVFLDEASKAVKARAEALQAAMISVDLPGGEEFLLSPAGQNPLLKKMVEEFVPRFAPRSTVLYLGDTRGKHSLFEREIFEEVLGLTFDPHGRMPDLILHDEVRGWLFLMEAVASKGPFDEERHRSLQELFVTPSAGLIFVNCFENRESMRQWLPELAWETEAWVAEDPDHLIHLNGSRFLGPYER

BstXI-HF N65A = conditions: NEB4, 55 C
[5] = system: T5, SbfI (Streptomyces species Bf-61?); conditions: NEB4, 37 C
T5 sequence: T4 sequence with A251K

[6] = biological target: T6, ScaI-HF H193A/S201F (Streptomyces caespitosus) (UniProt O52691); conditions: NEB4, 37 C
T6 sequence: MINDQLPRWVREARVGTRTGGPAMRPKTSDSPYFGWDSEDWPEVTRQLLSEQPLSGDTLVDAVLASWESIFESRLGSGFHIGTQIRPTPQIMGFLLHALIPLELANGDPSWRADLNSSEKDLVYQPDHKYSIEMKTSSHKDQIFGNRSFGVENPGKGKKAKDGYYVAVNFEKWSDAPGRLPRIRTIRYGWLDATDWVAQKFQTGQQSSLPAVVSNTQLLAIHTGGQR

[7] = biological target: T7, BamHI-HF E163A/E167T (Bacillus amyloliquefaciens) (UniProt P23940); conditions: NEB4, 37 C
T7 sequence: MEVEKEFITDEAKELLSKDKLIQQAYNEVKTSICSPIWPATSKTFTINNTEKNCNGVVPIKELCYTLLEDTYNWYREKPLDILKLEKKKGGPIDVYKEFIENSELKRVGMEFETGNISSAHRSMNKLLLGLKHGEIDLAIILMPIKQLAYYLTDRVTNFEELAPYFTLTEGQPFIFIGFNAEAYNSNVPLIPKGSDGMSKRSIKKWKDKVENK

[8] = biological target: T8, HindIII (Haemophilus influenzae Rd) (UniProt P43870); conditions: NEB4, 37 C; FI 250 in NEB2
T8 sequence: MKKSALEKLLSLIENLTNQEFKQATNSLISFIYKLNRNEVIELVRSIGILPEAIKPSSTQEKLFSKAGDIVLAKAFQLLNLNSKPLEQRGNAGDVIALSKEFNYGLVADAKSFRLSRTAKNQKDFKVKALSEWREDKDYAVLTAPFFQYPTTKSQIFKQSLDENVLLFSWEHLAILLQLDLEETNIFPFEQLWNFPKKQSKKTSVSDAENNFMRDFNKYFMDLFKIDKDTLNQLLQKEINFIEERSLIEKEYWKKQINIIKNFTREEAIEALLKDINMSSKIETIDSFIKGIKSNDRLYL

[9] = biological target: T9, PstI-HF D91A (Providencia stuartii 164) (UniProt P00640); conditions: NEB4, 37 C
T9 sequence: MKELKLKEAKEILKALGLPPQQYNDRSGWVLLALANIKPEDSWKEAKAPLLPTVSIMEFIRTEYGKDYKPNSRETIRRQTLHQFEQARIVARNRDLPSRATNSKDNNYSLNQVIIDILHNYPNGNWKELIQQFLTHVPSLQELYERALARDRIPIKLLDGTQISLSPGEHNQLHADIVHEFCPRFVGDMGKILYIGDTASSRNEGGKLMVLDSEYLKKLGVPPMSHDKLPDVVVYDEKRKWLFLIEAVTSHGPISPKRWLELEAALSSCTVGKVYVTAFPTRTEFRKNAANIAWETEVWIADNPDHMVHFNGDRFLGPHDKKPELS

[10] = system: T10, SphI-HF K100A (Streptomyces phaeochromogenes); conditions: NEB4, 37 C
T10 sequence: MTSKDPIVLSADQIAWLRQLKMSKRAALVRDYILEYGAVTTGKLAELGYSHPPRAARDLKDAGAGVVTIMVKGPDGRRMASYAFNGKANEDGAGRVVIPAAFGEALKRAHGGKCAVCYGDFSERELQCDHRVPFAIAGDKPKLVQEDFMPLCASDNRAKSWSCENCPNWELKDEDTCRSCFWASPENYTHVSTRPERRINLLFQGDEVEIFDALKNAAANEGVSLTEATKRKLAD

[11] = system: T11, NcoI-HF A2T/R31A (Nocardia corallina); conditions: NEB4, 37 C
T11 sequence: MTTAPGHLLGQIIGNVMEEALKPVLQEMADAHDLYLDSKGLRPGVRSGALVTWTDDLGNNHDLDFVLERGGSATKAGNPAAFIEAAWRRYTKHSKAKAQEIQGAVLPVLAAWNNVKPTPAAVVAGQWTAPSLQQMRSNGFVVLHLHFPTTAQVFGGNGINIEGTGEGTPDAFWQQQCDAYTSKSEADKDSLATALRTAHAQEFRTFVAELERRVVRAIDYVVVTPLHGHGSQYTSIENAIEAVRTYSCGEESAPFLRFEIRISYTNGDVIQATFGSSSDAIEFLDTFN

BsmBI-HF N185Y/R232A = conditions: NEB4, 55 C

## pUC19
[1]
  activity (fidelity index): 4000

## HindIII-digested lambda DNA
[2]
  activity (fidelity index): 1
[3]
  activity (fidelity index): 32000

## lambda phage DNA
BstXI
  activity (fidelity index): 4
[4]
  activity (fidelity index): 250
BstXI-HF N65A
  activity (fidelity index): 250
[5]
  activity (fidelity index): 8
[6]
  activity (fidelity index): 1000
[7]
  activity (fidelity index): 4000
[8]
  activity (fidelity index): 32
[9]
  activity (fidelity index): 4000
[10]
  activity (fidelity index): 8000
[11]
  activity (fidelity index): 64000
BsmBI-HF N185Y/R232A
  activity (fidelity index): 500
